Positions count from the first letter of the chain named.

We go through twelve molecules from US20260250331A1 (INTERNATIONAL AIDS VACCINE INITIATIVE, published 2026).

Assay [1] concerns the target BG505 MD39 N332-GT2 trimer (HIV-1 BG505). The assay can be described thus: SPR, Fab and N332-GT2 trimer. For orientation: In SPR one partner is held on a chip, and binding of the other changes the refractive index at the surface.
In another assay the target is N332-GT2 NP (ferritin) (HIV-1 BG505 Env fused to Helicobacter …). The assay can be described thus: SPR; NP captured as ligand with PGT128 IgG, Fab flowed as analyte.
Assay [2] addresses BG505 MD39 N332-GT2 trimer (HIV-1 BG505). The assay can be described thus: SPR.
In the next assay the target is gp120-17mutE. The experiment in a line: SPR.
The target in the next assay is gp120-17mutE K137/H325. The assay can be described thus: SPR.
The next assay addresses gp120-17mutE K137/P325. The experiment in a line: SPR.
Assay [3] addresses gp120-17mutE K137/M141/P325. The assay can be described thus: SPR.
In assay [4] the target is gp120-17mutE K137/R139/M141/P325. The experiment in a line: SPR.
For assay [5], the target named is BG505 MD39 N332-GT2 trimer (HIV-1 BG505). The assay can be described thus: SPR; reference 11mutB trimer.
The target is the same in assay [6]. The experiment in a line: SPR; KD scatter plot.
For assay [7], the target named is BG505 MD39 trimer (HIV-1 BG505). The assay can be described thus: ELISA on BG505-MD39, mAb titrated from about 0.001 to 50 µg/mL.
Assay [8] shares this target. The assay can be described thus: ELISA on BG505-MD39, BG18 as mAb titrated from about 0.001 to 50 µg/mL.

B1: BG18 iGL0 Fab (Fab, V domains shown)
VH: QVQLQESGPGLVKPSGTLSLTCAVSGGSISSSNWWSWVRQPPGKGLEWIGEIYHSGSTNYNPSLKSRVTISVDKSKNQFSLKLSSVTAADTAVYYCARNAITIFGVVIIGEYYYYGMDVWGQGTTVTVSS
VL: not shown
As to B1, the dissociation constant Kd in assay [1] was 4 nM; with N332-GT2 NP (ferritin), 3 nM.

B2: BG18 iGL1 with alternate germline VL gene VL2-8 (antibody, V domains shown)
VH: B1 VH with I109L
VL: QSALTQPPSASGSPGQSVTISCTGTSSDVGGYNYVSWYQQHPGKAPKLMIYEVSKRPSGVPDRFSGSKSGNTASLTVSGLQAEDEADYYCSSYAGSNNFWVFGGGTKLTVL
As to B2, the binding result in assay [2] is listed as “binds”.

B3: BG18 iGL1 (antibody, V domains shown)
VH: B1 VH with I109L
VL: not shown
As for B3, the Kd in assay [2] was 0.213 nM; with gp120-17mutE, around 14000 nM; with gp120-17mutE K137/H325, 5.9 nM; with gp120-17mutE K137/P325, 11 nM; in assay [3], 2.5 nM; in assay [4], 0.5 nM. For the same molecule, the “fold improvement over 11mutB” value in assay [5] was around 130000 fold.

B4: BG18 iGL1 with alternate germline VL gene VL3-1 (antibody, V domains shown)
VH: B1 VH with I109L
VL: not shown
Regarding B4, the binding result in assay [2] is given as “binds”.

B5: BG18 iGL1 with alternate germline VL gene VL3-19 (antibody, V domains shown)
VH: B1 VH with I109L
VL: SSELTQDPAVSVALGQTVRITCQGDSLRSYYASWYQQKPGQAPVLVIYGKNNRPSGIPDRFSGSSSGNTASLTITGAQAEDEADYYCNSRDSSGNHWVFGGGTKLTVL
For the molecule B5, the binding result in assay [2] is recorded as “binds”.

B6: BG18 iGL1 with alternate germline VL gene VL3-10 (antibody, V domains shown)
VH: B1 VH with I109L
VL: SYELTQPPSVSVSPGQTARITCSGDALPKKYAYWYQQKSGQAPVLVIYKDSKRPSGIPERFSGSSSGTMATLTISGAQVEDEDDYYCYSADYSGNHWVFGGGTKLTVL
As to B6, in assay [2], the binding result is reported as “binds”.

B7: pre13 (antibody, V domains shown)
VH: B1 VH with R98K, N99A, A100L, I101N, I108T, I109L, G110T, E111Q
VL: not shown
B7: in [6], the binding result was “no binding (tested: 100 µM)”.

B8: pre4 (antibody, V domains shown)
VH: B1 VH with N99E, A100R, I101D, I108S, I109L, G110R, E111V
VL: not shown
As to B8, the binding result in assay [6] was “no binding (tested: 100 µM)”.

B9: pre15 (antibody, V domains shown)
VH: B1 VH with N99D, A100I, I101H, T102N, I103S, I108S, I109L, G110D, E111Q, Y112N
VL: not shown
For the molecule B9, the binding result in [6] is recorded as “no binding (tested: 100 µM)”.

B10: pre14 (antibody, V domains shown)
VH: B1 VH with N99G, A100R, I108T, I109L, G110R, E111G
VL: not shown
notes: also called NGS pre14; NGS Pre14
For the molecule B10, the Kd came out at 136 nM in assay [1] and 94 nM with N332-GT2 NP (ferritin).

B11: BG18.6H BG18.11L (antibody, V domains shown)
VH: QVQLQESGPGLVKPSGTLSLTCAVSGDSRPSDHSWSWVRQPPGKGLEWIGEIYYSGSTNYNPSLKSRVTISVDKSKNQFSLKLSSVTAADTAVYYCARNAIRIYGVVALGEWFHYGMDVWGQGTTVTVSS
VL: SYELTQPPSVSVSPGQTARITCSGDALPSRYAYWYQQKPGQAPVLVISRDSQRSSGISGRFSGSWSGTTVTLTISGVQAEDEADYYCQSSDSSDTYKVFGGGTKLTVL
notes: also called less mutated variant of BG18
B11: the “EC50 (read off the curve)” value with BG505 MD39 trimer [7] was around 0.05 µg/mL.

B12: BG18 Fab (Fab, V domains shown)
VH: QVQLRESGPGLVKPSETLSLSCTVSNDSRPSDHSWTWVRQSPGKALEWIGDIHYNGATTYNPSLRSRVRIELDQSIPRFSLKMTSMTAADTGMYYCARNAIRIYGVVALGEWFHYGMDVWGQGTAVTVSS
VL: SSELTQPPSVSVSPGQTARITCSGAPLTSRFTYWYRQKPGQAPVLIISRSSQRSSGWSGRFSASWSGTTVTLTIRGVQADDEADYYCQSSDTSDSYKMFGGGTKLTVL
notes: also called mature BG18; 354BG18
With B12, in the assay with BG505 MD39 trimer [8], the “EC50 (read off the curve)” value was around 0.02 µg/mL.

The term Kd denotes a measure of binding affinity in units of concentration. A higher Kd goes with weaker binding. Usually EC50 (read off the curve) stands for the concentration giving half of the maximal effect. A high value points to a need for much substance.
